Test results reported in patent US20240279290A1 (Molecular Partners, published 2024).

Biological target: T1, cynomolgus serum albumin (cynomolgus)
T1 construct: also called CSA
Experiment: SPR (ProteOn XPR36), Protein #5 captured on hFAP-coated GLC chip, CSA as analyte, 1:1 Langmuir fit
Procedure: ProteOn setup for Protein #5 binding to serum albumin of different species. First, human FAP (hFAP) was coated on a GLC chip (BioRad) to a level of 700 RU before 50 nM Protein #5 was immobilized as analyle for 120 s (dissociation of 0 s) at constant flow of 100 μl/min to a level of 120 RU. The binding of the serum albumin to Protein #5 was measured by injecting human serum albumin (HSA), cynomolgus serum albumin (CSA) and mouse serum albumin (MSA) in a serial dilution of 100, 33, 11 and 3.7 nM with an association of 120 s and a dissociation of 600 s at a constant flow of 100 μl/min. HSA, CSA and MSA binding was measured serially and the hFAP/Protein #5 complex was regenerated each time with 10 mM glycine pH2 for 18 s at a flow of 100 μl/min. Thus, Protein #5 had to be re-immobilized on hFAP after each regeneration step. […] The kinetic was calculated on the first 300 s of dissociation.

T1 sequence (A2V9Z4 25-608): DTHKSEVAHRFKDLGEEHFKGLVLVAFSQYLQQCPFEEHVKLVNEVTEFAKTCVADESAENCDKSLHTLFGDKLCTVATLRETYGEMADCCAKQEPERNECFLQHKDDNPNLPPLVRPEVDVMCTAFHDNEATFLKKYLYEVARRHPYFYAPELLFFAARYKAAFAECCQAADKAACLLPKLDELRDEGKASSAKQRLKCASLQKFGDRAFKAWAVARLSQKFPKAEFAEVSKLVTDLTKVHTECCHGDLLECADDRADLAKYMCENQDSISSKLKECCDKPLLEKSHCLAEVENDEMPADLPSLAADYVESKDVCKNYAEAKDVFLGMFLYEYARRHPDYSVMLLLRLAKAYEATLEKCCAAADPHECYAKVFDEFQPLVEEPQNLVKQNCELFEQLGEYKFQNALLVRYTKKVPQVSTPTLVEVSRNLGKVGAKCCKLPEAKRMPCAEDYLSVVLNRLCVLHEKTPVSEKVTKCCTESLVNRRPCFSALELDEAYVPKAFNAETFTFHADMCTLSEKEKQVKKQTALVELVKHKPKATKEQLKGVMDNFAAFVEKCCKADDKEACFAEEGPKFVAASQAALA

- Kd: 409 nM
- koff: 0.217 s⁻¹
- kon: 532000 M⁻¹ s⁻¹
B1: DARPin Protein #5 (designed binder)
chain: GSDLGKKLLEAARAGQDDEVRELLKAGADVNAKDYFSHTPLHLAARNGHLKIVEVLLKAGADVNAKDFAGKTPLHLAAADGHLEIVEVLLKAGADVNAQDIFGKTPADIAADAGHEDIAEVLQKAAGSPTPTPTTPTPTPTTPTPTPTGSDLGKKLLEAARAGQDDEVRILLAAGADVNAKDVLGWTPLHLAAFEGHLEIVEVLLKAGADVNAKDKKGWTPLQLAARTGHLEIVEVLLKAGADVNAKDHIGATPLHLAAWQGHPEIVEVLLKAGADVNAQDKSGKTPADLAADAGHEDIAEVLQKAAGSPTPTPTTPTPTPTTPTPTPTGSDLGKKLLQAARAGQLDEVRELLKAGADVNAKDTWGFTPLHIAAESGHLEIVEVLLKAGADVNAKDVQGRTPLHIAAHSGHLEIVEVLLKAGADVNAKDFRGWTPLHLAAWSGHLEIVEILLKAGADVNAQDKSGKTPADLAARAGHQDIAEVLQKAAGSPTPTPTTPTPTPTTPTPTPTGSDLGKKLLQAARAGQLDEVRELLKAGADVNAKDTWGFTPLHIAAESGHLEIVEVLLKAGADVNAKDVQGRTPLHIAAHSGHLEIVEVLLKAGADVNAKDFRGWTPLHLAAWSGHLEIVEILLKAGADVNAQDKSGKTPADLAARAGHQDIAEVLQKAA
notes: No tag is stated for this protein; also called SMA136; Molecule No. 1
